How the values were obtained:
Test in all cases: ELISA; Fab fragments (IGH526, HCV1) coated ~2 μg per well; purified E1E2-DHD15 or E1E2-Fc serially diluted in 25 mM Tris, 150 mM NaCl, pH 7.4, 0.05% Tween-20, 1% BSA; detection by anti-FLAG M2 and/or HRP anti-mouse IgG
Conditions in all cases: both partners purified
[1] = molecular target: T1, E1E2-DHD15 heterodimer (HCV E1 and E2 ectodomains with the de novo designed heterodimeric tag DHD15), … (hepatitis C virus genotype 1b, Con1, UniProt Q9WMX2)
T1 construct: source: HEK293F, transient (pMlink), secreted, purified

[2] = molecular target: T2, E1E2-Fc oligomer (oligomeric SEC fraction of Fc-tagged HCV E1E2), expressed in HEK293 cells (hepatitis C virus genotype 1b, Con1, UniProt Q9WMX2)
T2 construct: also called E1E2 oligomer; oligomeric E1E2; source: HEK293F, transient (pMlink), secreted, purified (oligomer peak of the SEC)

[3] = molecular target: T3, E1E2-DHD15 heterodimer (HCV E1 and E2 ectodomains with the de novo designed heterodimeric tag DHD15), insect … (hepatitis C virus genotype 1b, Con1, UniProt Q9WMX2)
T3 construct: source: High-5 insect cells (baculovirus), secreted, purified (Ni-NTA, Flag M2, SEC)

[4] = molecular target: T4, E1E2-Fc heterodimer (HCV E1 and E2 ectodomains, Fc-tagged), mammalian cell expressed (hepatitis C virus genotype 1b, Con1, UniProt Q9WMX2)
T4 construct: source: HEK293F, transient (pMlink), secreted, purified

Measured: binding result

B1: Fab fragment of neutralizing antibody HCV1 (Fab, V domains shown)
VH: EVQLLESGGGVVQPGRSLRLSCTASGFTFNNYGMHWVRQTPGKGLEWLAVIWFDENNKYYADSVRGRFTISRDNSKNTLFLQMNSLKTEDTAMYYCARDISLVRDAFIYFDFWGLGTLVTVSS
VL: ELTLTQSPATLSLSPGERATLSCRASQSVSSYLAWYQQKPGQAPRLLIYDASNRATGIPARFSGSGSGTDFTLTISSLEPEDFAVYYCQQRSNWITFGQGTRLEIK
notes: source: HEK293F, transient (pMlink), purified
binds: [1] | [2] | [3] | [4]

Source: PMC6530877 (PLoS Pathogens, 2019)
